# T1: APBA2_2, Q99767
# T1 sequence (Q99767 654-744, limits assumed, looked up): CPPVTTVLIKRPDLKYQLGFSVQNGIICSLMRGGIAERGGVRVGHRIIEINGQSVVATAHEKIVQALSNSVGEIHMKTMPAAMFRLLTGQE
# T2: GRIP1_3, Q9Y3R0
# T2 sequence (Q9Y3R0 247-346, limits assumed, looked up): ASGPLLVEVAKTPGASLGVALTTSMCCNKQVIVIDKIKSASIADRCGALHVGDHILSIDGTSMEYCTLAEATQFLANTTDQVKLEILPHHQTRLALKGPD
# T3: GRIP1_5, Q9Y3R0
# T3 sequence (Q9Y3R0 568-668, limits assumed, looked up): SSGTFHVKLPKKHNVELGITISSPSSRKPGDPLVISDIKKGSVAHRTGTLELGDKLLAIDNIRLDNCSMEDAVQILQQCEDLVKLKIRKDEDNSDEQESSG
# T4: PDZRN3_1, Q9UPQ7
# T4 sequence (Q9UPQ7 244-349, limits assumed, looked up): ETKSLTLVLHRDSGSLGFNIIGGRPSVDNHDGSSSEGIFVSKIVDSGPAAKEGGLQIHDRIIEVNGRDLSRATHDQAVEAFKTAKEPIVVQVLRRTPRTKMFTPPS
# T5: RADIL, Q96JH8
# T5 sequence (Q96JH8 971-1071, limits assumed, looked up): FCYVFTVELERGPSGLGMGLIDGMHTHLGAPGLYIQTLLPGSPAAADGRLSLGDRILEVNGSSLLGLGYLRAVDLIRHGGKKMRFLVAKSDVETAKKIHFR
# T6: SNTB1, Q13884
# T6 sequence (Q13884 107-205, limits assumed, looked up): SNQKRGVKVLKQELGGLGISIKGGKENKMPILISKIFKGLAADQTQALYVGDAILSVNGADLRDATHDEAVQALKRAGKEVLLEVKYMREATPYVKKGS
# T7: TX1BP3, O14907
# T7 sequence (O14907 10-122, limits assumed, looked up): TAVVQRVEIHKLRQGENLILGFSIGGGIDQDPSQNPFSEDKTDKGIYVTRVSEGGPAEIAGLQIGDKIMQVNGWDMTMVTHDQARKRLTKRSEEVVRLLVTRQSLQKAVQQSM
# B1: FLVCR1, Q9Y5Y0 (peptide)
# chain: MLSKQSESAI
# B2: GPRC6A, Q5T6X5 (peptide)
# chain: TLPRKRMSSI
# B3: GHRHR, Q02643 (peptide)
# chain: SAAKVLTSMC
# Biological target: T1, APBA2_2, Q99767
# Assay: holdup assay
# Parameters: key: below the threshold = too weak to quantify, mostly under pKd 3.1 to 4
# Details: plain residues with an end cap or a label only (N-terminal biotin on a linker: ado-ado)
row,Binder,pKd
1,B1,below the threshold
2,B2,below the threshold
3,B3,below the threshold

# Biological target: CASK, O14936
# Sequence (O14936 487-570): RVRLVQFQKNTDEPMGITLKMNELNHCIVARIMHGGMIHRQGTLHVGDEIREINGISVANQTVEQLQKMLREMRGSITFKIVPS
# Assay: holdup assay
# Parameters: key: below the threshold = too weak to quantify, mostly under pKd 3.1 to 4
# Details: plain residues with an end cap or a label only (N-terminal biotin on a linker: ado-ado)
row,Binder,pKd
1,B1,below the threshold
2,B2,below the threshold
3,B3,below the threshold

# Biological target: DLG4_2, P78352
# Sequence (P78352 155-259): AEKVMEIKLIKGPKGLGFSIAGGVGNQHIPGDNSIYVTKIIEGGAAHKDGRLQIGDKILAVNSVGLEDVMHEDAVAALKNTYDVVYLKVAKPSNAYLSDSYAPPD
# Assay: holdup assay
# Parameters: key: below the threshold = too weak to quantify, mostly under pKd 3.1 to 4
# Details: plain residues with an end cap or a label only (N-terminal biotin on a linker: ado-ado)
row,Binder,pKd
1,B1,3.84
2,B2,below the threshold
3,B3,3.63

# Biological target: DLG4_3, P78352
# Sequence (P78352 306-403): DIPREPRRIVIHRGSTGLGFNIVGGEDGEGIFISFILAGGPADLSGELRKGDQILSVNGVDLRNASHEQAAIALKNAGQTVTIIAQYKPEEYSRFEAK
# Assay: holdup assay
# Parameters: key: below the threshold = too weak to quantify, mostly under pKd 3.1 to 4
# Details: plain residues with an end cap or a label only (N-terminal biotin on a linker: ado-ado)
row,Binder,pKd
1,B1,below the threshold
2,B2,below the threshold
3,B3,below the threshold

# Biological target: FRMPD3, Q5JV73
# Sequence (Q5JV73 12-100): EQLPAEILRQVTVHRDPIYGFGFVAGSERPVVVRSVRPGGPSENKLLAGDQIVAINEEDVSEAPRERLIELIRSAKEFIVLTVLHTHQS
# Assay: holdup assay
# Parameters: key: below the threshold = too weak to quantify, mostly under pKd 3.1 to 4
# Details: plain residues with an end cap or a label only (N-terminal biotin on a linker: ado-ado)
row,Binder,pKd
1,B1,below the threshold
2,B2,below the threshold
3,B3,below the threshold

# Biological target: FRMPD4, Q14CM0
# Sequence (Q14CM0 67-160): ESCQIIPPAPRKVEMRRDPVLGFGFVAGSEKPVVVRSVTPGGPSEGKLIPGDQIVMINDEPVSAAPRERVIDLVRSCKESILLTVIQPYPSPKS
# Assay: holdup assay
# Parameters: key: below the threshold = too weak to quantify, mostly under pKd 3.1 to 4
# Details: plain residues with an end cap or a label only (N-terminal biotin on a linker: ado-ado)
row,Binder,pKd
1,B1,below the threshold
2,B2,below the threshold
3,B3,below the threshold

# Biological target: GORASP1, Q9BQQ3
# Sequence (Q9BQQ3 1-208): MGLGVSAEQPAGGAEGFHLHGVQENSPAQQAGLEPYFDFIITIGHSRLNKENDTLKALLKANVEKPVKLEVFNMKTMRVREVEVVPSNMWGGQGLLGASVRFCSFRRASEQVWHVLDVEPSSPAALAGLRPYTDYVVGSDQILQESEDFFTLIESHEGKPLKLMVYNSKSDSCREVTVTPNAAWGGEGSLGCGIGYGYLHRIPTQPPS
# Assay: holdup assay
# Parameters: key: below the threshold = too weak to quantify, mostly under pKd 3.1 to 4
# Details: plain residues with an end cap or a label only (N-terminal biotin on a linker: ado-ado)
row,Binder,pKd
1,B1,below the threshold
2,B2,below the threshold
3,B3,below the threshold

# Biological target: T2, GRIP1_3, Q9Y3R0
# Assay: holdup assay
# Parameters: key: below the threshold = too weak to quantify, mostly under pKd 3.1 to 4
# Details: plain residues with an end cap or a label only (N-terminal biotin on a linker: ado-ado)
row,Binder,pKd
1,B1,below the threshold
2,B2,below the threshold
3,B3,below the threshold

# Biological target: T3, GRIP1_5, Q9Y3R0
# Assay: holdup assay
# Parameters: key: below the threshold = too weak to quantify, mostly under pKd 3.1 to 4
# Details: plain residues with an end cap or a label only (N-terminal biotin on a linker: ado-ado)
row,Binder,pKd
1,B1,below the threshold
2,B2,below the threshold
3,B3,below the threshold

# Biological target: GRIP2_4, Q9C0E4
# Sequence (Q9C0E4 446-548): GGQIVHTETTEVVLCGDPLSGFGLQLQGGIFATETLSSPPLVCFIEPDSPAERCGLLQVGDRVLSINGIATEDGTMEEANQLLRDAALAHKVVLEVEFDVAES
# Assay: holdup assay
# Parameters: key: below the threshold = too weak to quantify, mostly under pKd 3.1 to 4
# Details: plain residues with an end cap or a label only (N-terminal biotin on a linker: ado-ado)
row,Binder,pKd
1,B1,below the threshold
2,B2,below the threshold
3,B3,below the threshold

# Biological target: GRIP2_7, Q9C0E4
# Sequence (Q9C0E4 934-1023): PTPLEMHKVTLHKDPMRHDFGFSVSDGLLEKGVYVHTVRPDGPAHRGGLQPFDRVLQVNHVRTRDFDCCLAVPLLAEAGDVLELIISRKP
# Assay: holdup assay
# Parameters: key: below the threshold = too weak to quantify, mostly under pKd 3.1 to 4
# Details: plain residues with an end cap or a label only (N-terminal biotin on a linker: ado-ado)
row,Binder,pKd
1,B1,below the threshold
2,B2,below the threshold
3,B3,below the threshold

# Biological target: IL16_4, Q14005
# Sequence (Q14005 1229-1329): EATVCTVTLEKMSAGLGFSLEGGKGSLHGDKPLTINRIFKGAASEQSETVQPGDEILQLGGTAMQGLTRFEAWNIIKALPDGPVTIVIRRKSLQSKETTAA
# Assay: holdup assay
# Parameters: key: below the threshold = too weak to quantify, mostly under pKd 3.1 to 4
# Details: plain residues with an end cap or a label only (N-terminal biotin on a linker: ado-ado)
row,Binder,pKd
1,B1,below the threshold
2,B2,below the threshold
3,B3,below the threshold

# Biological target: Inadl_1, Q8NI35
# Sequence (Q8NI35 113-229): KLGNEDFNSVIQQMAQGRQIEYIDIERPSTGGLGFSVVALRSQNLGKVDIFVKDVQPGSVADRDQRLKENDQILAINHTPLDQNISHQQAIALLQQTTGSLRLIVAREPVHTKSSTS
# Assay: holdup assay
# Parameters: key: below the threshold = too weak to quantify, mostly under pKd 3.1 to 4
# Details: plain residues with an end cap or a label only (N-terminal biotin on a linker: ado-ado)
row,Binder,pKd
1,B1,below the threshold
2,B2,below the threshold
3,B3,below the threshold

# Biological target: Inadl_6, Q8NI35
# Sequence (Q8NI35 1058-1167): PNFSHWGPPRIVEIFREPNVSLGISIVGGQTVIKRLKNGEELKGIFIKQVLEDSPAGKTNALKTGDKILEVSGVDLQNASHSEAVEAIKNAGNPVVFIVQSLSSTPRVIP
# Assay: holdup assay
# Parameters: key: below the threshold = too weak to quantify, mostly under pKd 3.1 to 4
# Details: plain residues with an end cap or a label only (N-terminal biotin on a linker: ado-ado)
row,Binder,pKd
1,B1,below the threshold
2,B2,below the threshold
3,B3,below the threshold

# Biological target: LNX1_1, Q8TBB1
# Sequence (Q8TBB1 261-371): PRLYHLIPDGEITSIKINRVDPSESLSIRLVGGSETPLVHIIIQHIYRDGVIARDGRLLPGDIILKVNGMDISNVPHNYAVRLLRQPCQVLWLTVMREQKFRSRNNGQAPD
# Assay: holdup assay
# Parameters: key: below the threshold = too weak to quantify, mostly under pKd 3.1 to 4
# Details: plain residues with an end cap or a label only (N-terminal biotin on a linker: ado-ado)
row,Binder,pKd
1,B1,3.52
2,B2,3.78
3,B3,3.86

# Biological target: LNX1_2, Q8TBB1
# Sequence (Q8TBB1 371-470): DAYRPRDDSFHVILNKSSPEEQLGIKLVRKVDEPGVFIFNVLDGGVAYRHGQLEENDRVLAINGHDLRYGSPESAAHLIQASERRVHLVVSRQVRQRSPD
# Assay: holdup assay
# Parameters: key: below the threshold = too weak to quantify, mostly under pKd 3.1 to 4
# Details: plain residues with an end cap or a label only (N-terminal biotin on a linker: ado-ado)
row,Binder,pKd
1,B1,below the threshold
2,B2,below the threshold
3,B3,below the threshold

# Biological target: LNX1_3, Q8TBB1
# Sequence (Q8TBB1 500-596): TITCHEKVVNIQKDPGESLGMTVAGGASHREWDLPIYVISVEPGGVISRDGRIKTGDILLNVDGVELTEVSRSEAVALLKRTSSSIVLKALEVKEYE
# Assay: holdup assay
# Parameters: key: below the threshold = too weak to quantify, mostly under pKd 3.1 to 4
# Details: plain residues with an end cap or a label only (N-terminal biotin on a linker: ado-ado)
row,Binder,pKd
1,B1,below the threshold
2,B2,below the threshold
3,B3,below the threshold

# Biological target: MAGI1_1, Q96QZ7
# Sequence (Q96QZ7 1-106): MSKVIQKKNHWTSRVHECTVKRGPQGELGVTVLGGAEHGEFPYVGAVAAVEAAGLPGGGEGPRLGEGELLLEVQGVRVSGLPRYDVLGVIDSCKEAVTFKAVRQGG
# Assay: holdup assay
# Parameters: key: below the threshold = too weak to quantify, mostly under pKd 3.1 to 4
# Details: plain residues with an end cap or a label only (N-terminal biotin on a linker: ado-ado)
row,Binder,pKd
1,B1,below the threshold
2,B2,below the threshold
3,B3,below the threshold

# Biological target: MAGI1_2, Q96QZ7
# Sequence (Q96QZ7 456-580): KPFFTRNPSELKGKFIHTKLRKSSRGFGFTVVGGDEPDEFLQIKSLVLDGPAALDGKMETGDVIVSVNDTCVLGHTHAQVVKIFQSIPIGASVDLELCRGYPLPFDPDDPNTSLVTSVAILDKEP
# Assay: holdup assay
# Parameters: key: below the threshold = too weak to quantify, mostly under pKd 3.1 to 4
# Details: plain residues with an end cap or a label only (N-terminal biotin on a linker: ado-ado)
row,Binder,pKd
1,B1,below the threshold
2,B2,below the threshold
3,B3,below the threshold

# Biological target: MAGI2_5, Q86UL8
# Sequence (Q86UL8 915-1017): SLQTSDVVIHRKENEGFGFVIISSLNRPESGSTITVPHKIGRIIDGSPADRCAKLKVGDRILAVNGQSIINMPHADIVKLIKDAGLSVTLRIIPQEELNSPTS
# Assay: holdup assay
# Parameters: key: below the threshold = too weak to quantify, mostly under pKd 3.1 to 4
# Details: plain residues with an end cap or a label only (N-terminal biotin on a linker: ado-ado)
row,Binder,pKd
1,B1,below the threshold
2,B2,below the threshold
3,B3,4.36

# Biological target: MAGI2_6, Q86UL8
# Sequence (Q86UL8 1141-1229): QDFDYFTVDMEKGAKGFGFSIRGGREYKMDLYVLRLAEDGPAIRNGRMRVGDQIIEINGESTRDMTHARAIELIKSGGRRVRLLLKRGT
# Assay: holdup assay
# Parameters: key: below the threshold = too weak to quantify, mostly under pKd 3.1 to 4
# Details: plain residues with an end cap or a label only (N-terminal biotin on a linker: ado-ado)
row,Binder,pKd
1,B1,below the threshold
2,B2,below the threshold
3,B3,below the threshold

# Biological target: T4, PDZRN3_1, Q9UPQ7
# Assay: holdup assay
# Parameters: key: below the threshold = too weak to quantify, mostly under pKd 3.1 to 4
# Details: plain residues with an end cap or a label only (N-terminal biotin on a linker: ado-ado)
row,Binder,pKd
1,B1,3.78
2,B2,below the threshold
3,B3,below the threshold

# Biological target: PDZRN4_1, Q6ZMN7
# Sequence (Q6ZMN7 213-318): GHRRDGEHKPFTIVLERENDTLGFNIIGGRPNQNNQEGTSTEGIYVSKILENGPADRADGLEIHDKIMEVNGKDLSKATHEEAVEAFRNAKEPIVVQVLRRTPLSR
# Assay: holdup assay
# Parameters: key: below the threshold = too weak to quantify, mostly under pKd 3.1 to 4
# Details: plain residues with an end cap or a label only (N-terminal biotin on a linker: ado-ado)
row,Binder,pKd
1,B1,3.62
2,B2,below the threshold
3,B3,below the threshold

# Biological target: PICK1, Q9NRD5
# Sequence (Q9NRD5 17-115): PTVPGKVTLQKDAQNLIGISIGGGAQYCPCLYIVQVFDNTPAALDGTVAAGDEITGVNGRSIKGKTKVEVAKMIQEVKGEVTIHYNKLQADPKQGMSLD
# Assay: holdup assay
# Parameters: key: below the threshold = too weak to quantify, mostly under pKd 3.1 to 4
# Details: plain residues with an end cap or a label only (N-terminal biotin on a linker: ado-ado)
row,Binder,pKd
1,B1,below the threshold
2,B2,4.13
3,B3,below the threshold

# Biological target: T5, RADIL, Q96JH8
# Assay: holdup assay
# Parameters: key: below the threshold = too weak to quantify, mostly under pKd 3.1 to 4
# Details: plain residues with an end cap or a label only (N-terminal biotin on a linker: ado-ado)
row,Binder,pKd
1,B1,below the threshold
2,B2,below the threshold
3,B3,3.71

# Biological target: SCRIB_2, Q14160
# Sequence (Q14160 857-960): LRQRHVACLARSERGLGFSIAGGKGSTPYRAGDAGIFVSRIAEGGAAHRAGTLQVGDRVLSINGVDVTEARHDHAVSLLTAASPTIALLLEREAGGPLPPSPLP
# Assay: holdup assay
# Parameters: key: below the threshold = too weak to quantify, mostly under pKd 3.1 to 4
# Details: plain residues with an end cap or a label only (N-terminal biotin on a linker: ado-ado)
row,Binder,pKd
1,B1,3.55
2,B2,below the threshold
3,B3,below the threshold

# Biological target: SCRIB_3, Q14160
# Sequence (Q14160 999-1103): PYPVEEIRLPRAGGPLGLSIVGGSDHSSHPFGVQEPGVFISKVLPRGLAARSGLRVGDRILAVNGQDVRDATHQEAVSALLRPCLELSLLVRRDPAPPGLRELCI
# Assay: holdup assay
# Parameters: key: below the threshold = too weak to quantify, mostly under pKd 3.1 to 4
# Details: plain residues with an end cap or a label only (N-terminal biotin on a linker: ado-ado)
row,Binder,pKd
1,B1,4.61
2,B2,3.49
3,B3,3.61

# Biological target: T6, SNTB1, Q13884
# Assay: holdup assay
# Parameters: key: below the threshold = too weak to quantify, mostly under pKd 3.1 to 4
# Details: plain residues with an end cap or a label only (N-terminal biotin on a linker: ado-ado)
row,Binder,pKd
1,B1,3.68
2,B2,below the threshold
3,B3,3.53

# Biological target: SNX27, Q96L92
# Assay: holdup assay
# Parameters: key: below the threshold = too weak to quantify, mostly under pKd 3.1 to 4
# Details: plain residues with an end cap or a label only (N-terminal biotin on a linker: ado-ado)
row,Binder,pKd
1,B1,4.4
2,B2,below the threshold
3,B3,5.16

# Biological target: T7, TX1BP3, O14907
# Assay: holdup assay
# Parameters: key: below the threshold = too weak to quantify, mostly under pKd 3.1 to 4
# Details: plain residues with an end cap or a label only (N-terminal biotin on a linker: ado-ado)
row,Binder,pKd
1,B1,4.1
2,B2,below the threshold
3,B3,3.54

# — PMC9482650, “Quantitative fragmentomics allow affinity mapping of interactomes” (Nature Communications, 2022)
